Reference: paper PMC5620733, “Aptamer-Based Single-Step Assay by the Fluorescence Enhancement on Electroless Plated Nano Au Substrate”

Molecular target: thrombin (UniProt P00734;P00734 328-363;364-622)
Assay: fluorescence decrease on chitosan-coated Au nanostructure (aptamer release); 10 ug/mL thrombin, 15 min; smaller signal change than 15mer, ascribed to retention on chitosan; 20 mM Tris-HCl pH 7.4, 20 mM MgCl2; chitosan-coated (1000 Da) Au nanostructure blocked with 1% BSA; 15 min; temperature not stated

CACTGTGGTTGGTGTGGTTGG (ssDNA) [TBA 21mer (5'-extended)]: binds.
